Laboratory results from patent US8835609B2, “Antigen binding sites to non-functional oligomeric P2X7 receptors and methods of use thereof” (Biosceptre International Limited, priority 2009, dated 2014).

Experiments:
[1] = molecular target: T1, red blood cells expressing function-capable P2X7 receptor (Mus musculus, UniProt Q9Z1M0); test: Binding to red blood cells in tumour sections; format: in vivo; settings: adjacent red blood cells in Lewis Lung tumour section
T1 construct: from tissue; host or cells: red blood cells in formalin-fixed Lewis Lung tumour sections from antibody-treated mice
T1 sequence (Q9Z1M0 1-595): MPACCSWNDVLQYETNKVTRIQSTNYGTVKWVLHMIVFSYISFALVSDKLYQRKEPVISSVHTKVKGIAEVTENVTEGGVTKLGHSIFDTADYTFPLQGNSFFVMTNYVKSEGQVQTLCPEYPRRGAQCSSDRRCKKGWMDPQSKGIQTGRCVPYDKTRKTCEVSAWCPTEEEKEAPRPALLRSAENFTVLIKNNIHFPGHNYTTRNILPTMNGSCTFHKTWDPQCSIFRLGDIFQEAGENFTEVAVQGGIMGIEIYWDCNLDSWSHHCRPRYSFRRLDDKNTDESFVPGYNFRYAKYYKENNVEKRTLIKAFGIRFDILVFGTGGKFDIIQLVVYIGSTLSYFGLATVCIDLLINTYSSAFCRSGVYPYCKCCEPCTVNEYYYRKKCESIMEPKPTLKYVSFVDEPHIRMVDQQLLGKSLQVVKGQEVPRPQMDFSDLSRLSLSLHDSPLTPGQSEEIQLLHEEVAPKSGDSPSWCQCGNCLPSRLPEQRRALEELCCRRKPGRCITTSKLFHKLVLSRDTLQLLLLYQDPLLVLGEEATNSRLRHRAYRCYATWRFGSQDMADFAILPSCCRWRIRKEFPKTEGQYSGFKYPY
Method: Female BALB/c mice inoculated with the orthotopic syngeneic 4T1 murine mammary tumours in their third mammary fat pads or NOD/SCID female mice inoculated with the orthotopic human Hep3b xenograft tumour in their livers were treated intravenously with either a human domain antibody (2-2-1 hFc) directed at a monomeric target (epitope E200 on P2X7) or 2F6-hIgG1 directed at the compound epitope E200-300. All procedures approved by the Animal Ethics Committee at The University of Adelaide (M46-2008). Antibody penetration into the tumours was measured using Jackson Immunosearch goat anti-human antibody on tumour sections that were removed from the mice two days post antibody treatment. The tumours were fixed in 10% neutral buffered formalin for 48 hours, embedded in paraffin, sectioned to 5 um, deparaffinized, and stained for human antibody. The Biocare Mach 4 secondary detection system was used, comprising a specific goat antibody probe followed by a polymer with HRP then stained with DAB.

[2] = tested on: 4T1 mouse breast tumour cells; test: 4T1 syngeneic xenograft model, lung metastases; format: in vivo; parameters: number of lung metastases, % of control / average metastasis volume, % of control / reduction of total metastasis volume / total metastasis volume, % of control: concentration or dose not given beside the values; settings: Day 14
Method: Reagents for culture of 4T1 mouse breast tumour cells were obtained from the following suppliers: RPMI 1640 cell culture medium, FCS, Glutamax, HBSS and penicillin-streptomycin from Invitrogen Australia (Mt Waverley, VIC, Australia); and Trypan Blue from Sigma-Aldrich (Castle Hill, NSW, Australia). Matrigel™ was obtained from BD Biosciences (North Ryde, NSW, Australia).
Tumour cells (Passage 2 from working stock) were cultured in RPMI 1640 cell culture medium, supplemented with 10% FCS, 1% Glutamax and 1% penicillin-streptomycin. The cells were harvested by trypsinisation, washed twice in HBSS and counted. The cells were then resuspended in HBSS:Matriger™ (1:1, v/v) to a final concentration of 5×10^7 cells/mL.
(§1) Dosing occurred every 3 days at antibody concentrations of 1 or 10 mg/kg i.v. or with PBS for treatment control or Sorafenib at 5 mL/kg daily as a positive control in the Lewis Lung model. Mice were randomised into equal groups of 10 mice, based on tumour volume on Day 0 of the studies.
(§2) Mice were anaesthetised for blood collection and euthanised by exsanguination via terminal cardiac bleed 48 hours post-final dose, on Days 11 or 14 post-initial treatment.
(§3) The lungs were excised from all mice. Lung surface metastases were counted and were categorised according to size: small (<1 mm), medium (≧1 mm and <3 mm) and large (≧3 mm). Excised lungs were preserved in 10% neutral buffered formalin.

Lewis Lung (LL) tumour = test: Lewis Lung (LL) syngeneic xenograft model, lung metastases; format: in vivo, mouse; settings: Day 11
Method: as §1, §2, §3
The syngeneic Lewis Lung model was used with additional control groups. Besides the PBS control group of ten mice (Group 1), a positive control group using daily Sorafenib at 5 mL/kg was included (Group 5) along with antibody treatment groups consisting of sheep affinity purified E200-300 polyclonal antibody at 10 mg/kg (Group 2), 2F6-hIgG1 at 1 mg/kg (Group 3) and 2F6-hIgG1 at 10 mg/kg (Group 4).

B1: 2F6 hIgG1: mouse scFv from 2F6 grafted into a human format of type IgG1, expressed in HEK293 cells (antibody, V domains shown)
VH: DVKLVESGGGLVKLGGSLKLSCAASGFTFSSYYMSWVRQTPEKRLELVAAINSNGGSTYYPDTVKGRFTISRDNAKNTLYLQMSSLKSEDTAFYYCTRHYSSRFFDVWGAGTTVTVSS
VL: MADIVMTQSQKFMSTSVGDRVSVTCKASQNVGTNVAWYQQKPGQSPKALIYSASFRYSGVPDRFTGSGSGTDFTLTISNVQSEDLAEFFCQQYNSYPFTFGSGTRLEIK
With B1 the “labelling of red blood cells” value [1] was “entirely unlabelled”, the “number of lung metastases” value ([2]; BALBc mice, i.v. every 3 days) was 3.4±0.7 and the average metastasis volume [2] was 1.28 mm^3. For the same molecule, the “average metastasis volume, % of control” value [2] was 22%, the “number of lung metastases, % of control” value [2] was 53% and the total metastasis volume [2] was 43 mm^3. The “total metastasis volume, % of control” value [2] was 11.8%, the “reduction of total metastasis volume” value ([2]; listed as 2F6-hIgG1) was 88% and the “reduction of total metastasis volume” value ([2]; listed as 2F6hIgG1) was 89%. For the same molecule, the “Mean Lung Surface Mets” value (Lewis Lung (LL) tumour; antibody 1 mg/kg i.v. every 3 days) was 0.9, the “Mean Lung Surface Mets” value (Lewis Lung (LL) tumour; antibody 10 mg/kg i.v. every 3 days) was 0.2 and the “inhibition of lung metastases relative to PBS control” value (Lewis Lung (LL) tumour; antibody 10 mg/kg) was 96%.
